In a protein production outcome set (Wang et al. 2014) one finds protein production data, which are given here for 19 sequences.

This data set can be described thus: label from the status in PepcDB records.

As for “MNIFTEAAKLEEQNCPFAMAQIVDSRGSTPRHSAQMLVRADGSIVGTIGGGMVERKVIEESLQALQERKPRLFHGRMARNGADAVGSDCGGAMSVFISVHGMRPRLVLIGAGHVNRAIAQSAALLGFDIAVADIYRESLNPELFPPSTTLLHAESFGAAVEALDIRPDNFVLIATNNQDREALDKLIEQPIAWLGLLASRRKVQLFLRQLREKGVAEEHIARLHAPVGYNIGAETPQEIAISVLAEILQVKNNAPGGLMMKPSHPSGHQLVVIRGAGDIASGVALRLYHAGFKVIMLEVEKPTVIRCTVAFAQAVFDGEMTVEGVTARLATSSAEAMKLTERGFIPVMVDPACSLLDELKPLCVVDAILAKQNLGTRADMAPVTIALGPGFTAGKDCHAVIETNRGHWLGQVIYSGCAQENTGVPGNIMGHTTRRVIRAPAAGIMRSNVKLGDLVKEGDVIAWIGEHEIKAPLTGMVRGLLNDGLAVVGGFKIGDIDPRGETADFTSVSDKARAIGGGVLEALMMLMHQGVKATKEVLEVALEHHHHHH”, the protein production entry is given as “failed”.

For the sequence “MNIGSMDIQKIGMITSYRNLAKRADWLWQQTPQQFGIWQNIQIQALSGKPDFLLMYQFDFPKDNQQTSLIDKLRQKLQNPQVNVESLLRDVPKEKIIYLLREPPLDEIVEKNKRYYQEAKKYCGYISGPDDFAPKPDYMPAIWYHNNSFRELNEMPVPEKVFPCSWITSGISRTVNHRRRLKFVELIQASEVKCDVYGRDLPIWAKSLGELGNKWYGMAPYYYNLSIENYADNDWYVSEKLWDALLAWCLPIYYGGPAADKLLPPGSFLRLPSLDEKGIAYIQEVTATPDAWYAAKDAIAEARQLILHKLNLLNWLSEFVTQFS”, the protein production entry is reported as “failed”.

As to “MNIGTFDRLLFAYSIGSHILIVLMSIGLSVILPVLEYIAIKYKDVYYDLLTRRVAKALVMFFAVGTASGAVMAVELIDLFPKFMTIIAVVGVLPFYYEIFAFFLETIMLVSYYYYWDVFKNRMHHWLLTFGVAGGTLASAVFITMINAWMNTPNGFNISYYEKTGKLIDVNPFITALTPSTGREVFHVVIVTAFAGLMVLGAFFAYQYLRAKTEEAKTLYMKGLKVTFPMNMFLIIMAGLSGTLEMSGLLTYQPEKYAALDLNPYPIARDAPEHLFGTIVEKNGHYYVLGGIKIPFVQSLLAGNGNLNTPVPGLSQFPTSTWPPLAVHDTFDLMVIGGTLLGLFLLSVLIAWILKKKPYESKGFMVAQILFAILTIPIYIGGWVTDEVGRQPWIIYNVMTVYQAANYSPSIIVPGYLIMAFYTILMPFSYWYAFRLMKQGDVKKEISSYKMPSTAHGR”, the protein production entry was “failed”.

As for “MNIIMNINSKAKGFVCGAVAAATYGMNPLFTLPLYKEGMSVDSVLFYRYGFAVLILGILMKVQGQSFALKKNEVLPLIVGGLLFSASSLLLFLSYKHMDAGIASTILFVYPVMVALIMFLFFHEKVSLLTVFCILLALSGIGLLYKGEGGETLSLVGMLLVILSSLSYAVYIVGVNHSTLKLMSTAKLTFYALLFGLSIYIVRLNFCSDLQAVPSLPAWGNILAMAFLPTVISLVCTAVSIHTIGSTSTAILGALEPVTALFFGVMIFGERLTPRLMLGILMILVAVTFIVVGKPLMTFLKEEVAGGMKRKLTR”, the protein production result was “failed”.

“MNIKEYLQQHPQWKKRIHGFIMHPVKTRPYWWIRVWQPFYIKKGRGSVIYSSVRKDLPPFHLFQMGKYSVVEDFSCLNNAVGDIVIGDYCRIGLGNTVIGPIRIDNGVNISQNVVLIGLDHNYQDITQGIIEQGITTSPIHIGEHTIIGANVIVLPGITIGKHCFIGAGCVVTQNIPDYCVTVGNPARIIKRYNPQSQTWEKI”: the protein production entry is reported as “failed”.

Take “MNIMEIEKTNRMNALFEFYAALLTDKQMNYIELYYADDYSLAEIADEFGVSRQAVYDNIKRTEKILETYEMKLHMYSDYVVRSEIFDDMIAHYPHDEYLQEKISILTSIDNRE”: the protein production result is reported as “not failed”.

Consider “MNIPAAEPRARMTLAEFHRLLADQHPFAQVLGIDVVDIGHGTARAVLPARDTHQRLGGIVAGPMLMGLADLTMYAAVVGATGQAGAVTANLTIHFLRKTSGAAVIADARVLKTGRLAMAEAILRCDGADEPVAHVVSAWAVPAP”, for which the protein production entry is reported as “failed”.

On to “MNIQIKKRFLANLLLFSLFCLKAETLSEDHQILLSSDAFHRGDFAAAQKGYMNLYKQTNKVVYAKEAAISAASLGDIKTAMHLAMLYQKITNNRNDVSINKILVDGYAQMGQIDKAIELLHKIRKEEKTIATDNVLGTLYLTQKRLDKAFPLLNKFYNQVHDEDSLEKLITIYFLQNRKKEGLDLLQSHIDRYGCSEQLCQKALNTFTQFNELDLAKTTFARLYEKNPIVQNAQFYIGVLILLKEFDKAQKIAELFPFDRRLLLDLYTAQKKFDQASKQASLIYQEKKDPKFLGLEAIYHYESLSANKKKLTKEEMLPIIQKLEQATKERQAWLAKTKDKEDAQDAFFYNFLGYSLIDYDMDIKRGMDFVRKALALDSGSVLYLDSLAWGYYKLGNCLEAKKIFSSIAKESIQAEPELKEHNKIIQECKK”, for which the protein production result is listed as “failed”.

For “MNIQSILSDKIKQAMILAGADQSCDALIRQSGKPQFGDYQANGIMAAAKKLGLNPREFAQKVLDNLQLSDIAEKLEIAGPGFINIFLNPTWLTTEISAALSHK”, the protein production entry is on record as “failed”.

As to “MNIREIAAKCSKCGYCTTCPTYRIEGWETVSPRGKIQLALKYVDGEIDVDQKIVKDIFKCSVCGLCQEVCPVELPLIDFWEELRRTLVQKGLAPLSVHRKLREITFRNYNPYSGDQERRGDWADFEIKPAKTLYFAGCTASFRLQNLAKSTASVLEKLGIDFTIAGKNEYCCGSPFLRTGQKDIVERLFEKNYAYWQKMGIERIITSCPGCYRTISLDYPKIAEEKGYEFDIEVVHTVSILDKMGEFEKIDLKATYHDPCHLGRHMGMYEEPRNVIKRLGINFVEMERNREQALCCGAGGGLRSQFPEISFEIGRQRVLEAMETGAEYLITCCPFCEYHLSKSAEKLGNRIKVVDLVEIAEKLISP”, the protein production result is recorded as “failed”.

As for “MNIRITNIQKQLHKYGIDGLLITKKENRQYATGFTGSAGVVLISADQAVFITDFRYVDQAKSQIQDAEIVMHKGNLEKEIAHQVSKLNIQKLGIEENNMTLQQYKNLQKYVHTEMIQVCEIIESIRIIKDTPEIETMKIAAHIADEAFHHILTFLKPGISENDVRDELEFFMRKKGATSSSFQIIVASGVRSSLPHGVASNKIIERSDIVTLDFGALYDGYCSDITRTVAIGEPSEEFKKIYNIVREALKRGTEAIKPGETAKRIDDITRNYITEHGYGQYFGHSTGHGLGLEIHEPLRLSQESKATLEEGMVVTVEPGIYIPNWGGCRIEDDIVITKDGYEVITKSNRELIVIPC”, the protein production result is given as “failed”.

As for “MNIRPSQIKHKQRIASFITHAVVVVMGVLIVSVLFQSYQISSRLMAQEGQRTSVQTSSLIQSLFDFRLAALRIHQDSTAKNASLINALVSRDSSRLDEFFSSVDELELSNAPDLRFISSHDNILWDDGNASFYGIAQQELNKLIRRVAISGNWHLVQTPSEGKSVHILMRRSSLIEAGTGQVVGYLYVGIVLNDNFALLENIRSGSNSENLVLAVDTTPLVSTLKGNEPYSLDYVVHSAKDAMRDSFIVGQTFLEVESVPTYLCVYSIQTNQNVLTLRDNFYFWMAFALISMIGVSIASRWWLQKRIQREIETLMNYTHKLMDLDTKSEFIGSKIYEFDYFGRTLEQSFRRLANKEKQFEDLFNFALSPTMLWNTSGRLIRMNPSAQIQFLREDAQNHFLFEILERQLLPTITNAAQGNNPSDVTTEVDGRVYRWNLSPIMVEGQIISIITQGQDITTIAEAEKQSQAARREAEESARVRAEFLAKMSHELRTPLNGVLGVSQLLKRTPLNDEQREHVAVLCSSGEHLLAVLNDILDFSRLEQGKFRIQKNEFRLKELVCAIDRIYRPLCNEKGLELVVNSNITTAAIVRSDQIRINQILFNLLNNAIKFTHQGSIRVELQLIEGDPLAQLVIQVVDTGIGIREQDLTVIFEPFMQAESTTTREYGGSGLGLTIVHSLVEMLSGQLHVSSEYGIGTRFEIQLPIELVEKPDAPQQLLPAPDPQPLFDKTLRVLLVEDNHTNAFIAQAFCRKYGLDVSWVTDGLQAIEELKIHDYDLVLMDNQLPYLDGVETTRTIKKVLHLPVVVYACTADGLEETRQAFFHAGAEYVLVKPLKEQTLHKALEHFKHHHGQKNAGLN”, the protein production result was “failed”.

In the case of “MNISLSRVHFPVTTLGPGQRLGLWFQGCSIRCAGCISADTWGPGKHPLPLAQVLDDLQPWLARAEGITLSGGEPFDQPEALLALLRGLRERTGVDILVYSGHSLETLQPLLQQAEGLLDALICDPFEQQQAQTLVLRGSDNQRLIFLTELGRQRLSTYQRPLHHEDRALDVMFDDDGSVWMAGIPRRDDVLRLRDLLHDQGHQLQISAHTSRRRLEHHHHHH”, the protein production result was “failed”.

In the case of “MNITGIIAEYNPMHNGHIHHLEKTKEICKSDVILCVMSGDFVQRGEPAIIDKWSRAYAALSSGVDLVIELP”, the protein production entry is reported as “failed”.

Take “MNIWIRGGTSDANTISKEIKRNFKDSFLILTTTTDFGGKIAENFADFVISEKMNYDNLKKTLVNKKIDVFIDATHPFATHASETGMKISKELNIPYIRYERPVEEFKDVFYVENFEEAAKLALKISKKNIFYMSGIKNLKTVSEIIPIEKLIVRILPTSVPEALKILPSKNIVAMQGVFSENLNKDLITDYNCDVIITKDSGKSGGLYEKVSGAVLAGAKPIIIKRPEINYPLKFEKIDELVNYLKN”: the protein production entry is recorded as “failed”.

As for “MNKERNIIIAKNIRKFLNDSNMSQKKLAELINIKPSTLSDYLNLRSNPSHGVIQRIADVFEVGKSDIDTTYKDDNDITSIYNKLTPPRQENVLNYANEQLEEQNSKGDNVVDINSYKQEKTPVNVNGCVSAGVGERLHDETLFTEMVKGPIPTHDLALKVNGDSMEPMFKDGEIIFVEKTHNIKNGQIGIFIIEEEAYVKKVFVEDDRLTLVSLNKDYDDLHFYRNESVRLIGKVIL”, the protein production result was “failed”.

As to “MNKETVLYVVIALLVGILGTVLVVGVVNKQKPAPATAGIPAGGGSPVDYQQRIAEAEKVVANDPKNLQAWIQLGNDYFDTDQAQKAINAYGKALELDPTNANVLTDQGIMFKRVGWFDKAIANFEKAQQLDPKHLQSLYNLGVVYMSDLKQPAKAVKYWERYLELDPMGPNSQQIRTMLEEAKGMAQTPSPQGQLFRK”, the protein production entry was “failed”.

Take “MNKGILIVLLAGLVSACTHKEKNPLDSLPDMSAVRANLAFTCVHEADHLPPLDPEADQLFQYGRYLQKKEGPKNFNEVARYYRIAAAYGHYKANSNLQGLVSQGIADSPDAPKETIDLAAQLVNQGIPGGYYDIGHYLELGYGLKQDPEMALRYIRKAADLGNPDAQFYVAEKLAPIDNAPAIARQMWQCATDQGHGRAALTLGVDLKTDKLYPDAAKAFQQGAKSGSSTAALSLRDAFHNPSQSDQLNYLAVPHDPERSRRYGLIWKFLKDNDGRSPKVPDIDKIVPLPPAKLPPWDGTFQWEKDQAAAVPPQKPSDELIERLSKAKHLDPATGLPLAKPEQVAQMETEAAPPPARLPLGTIARTGDSCPQDGVWCVSLAKGMVADAEQSFLKGMELPSLTIYQPRRFAWMDNWMGVRQQTVPVAWKLVGYIHEA”: the protein production entry was “failed”.

For the sequence “MNKHLKIQIMNIHSEREIYSARVLNAPIEIVYEAFANPSYLKNWWGPKGFTNTIHAFDLQPGGKWILTMHGPEKGNYENSSIFKIVEPQKLISWERKSKPLFDMEVEFKKLNNLQTEISFRMTFSTKEDCDKIRSFVEPQNEELRSIRKRNSEHKLIPTCIPRHPHWLVFQSRQ”, the protein production entry is “failed”.
